In publication PMC9946822, “Widely conserved AHL transcription factors are essential for NCR gene expression and nodule development in Medicago”:

What was measured:
Assay in all cases: EMSA; 0-300 ng protein titration; EMSA as in Chen (ref. 37), 10 ng probe and 200 ng protein (titration 0-300 ng), SYBR Gold stain; binding buffer, pH and temperature not stated; protein eluted in BS/THES (22 mM Tris-HCl pH 7.5, 4.4 mM EDTA, 8.9% sucrose, 62 mM NaCl, 10 mM HEPES, 5 mM CaCl2, 50 mM KCl, 12% glycerol) with 150 mM imidazole
Conditions in all cases: protein: recombinant; tags: His (pET28a); blunt
[1] = target: MtAHL2 (Medicago truncatula, UniProt G7KSI4 1-269)
[2] = target: MtAHL1 (Medicago truncatula, UniProt G7JGG2 1-296)
[3] = target: GmAHL1 (Glycine max, UniProt C6TMY6 1-268)

Measured: binding result

MtAHL1, sequence (G7JGG2 entry or part of it): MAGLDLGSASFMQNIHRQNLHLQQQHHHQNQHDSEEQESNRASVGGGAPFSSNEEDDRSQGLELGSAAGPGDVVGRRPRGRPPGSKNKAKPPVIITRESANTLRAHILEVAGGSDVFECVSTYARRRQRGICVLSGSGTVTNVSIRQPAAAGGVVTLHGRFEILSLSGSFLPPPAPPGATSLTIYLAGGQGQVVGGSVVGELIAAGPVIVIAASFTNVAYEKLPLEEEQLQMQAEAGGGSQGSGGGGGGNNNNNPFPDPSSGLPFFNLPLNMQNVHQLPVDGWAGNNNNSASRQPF
GmAHL1, sequence (C6TMY6 entry or part of it): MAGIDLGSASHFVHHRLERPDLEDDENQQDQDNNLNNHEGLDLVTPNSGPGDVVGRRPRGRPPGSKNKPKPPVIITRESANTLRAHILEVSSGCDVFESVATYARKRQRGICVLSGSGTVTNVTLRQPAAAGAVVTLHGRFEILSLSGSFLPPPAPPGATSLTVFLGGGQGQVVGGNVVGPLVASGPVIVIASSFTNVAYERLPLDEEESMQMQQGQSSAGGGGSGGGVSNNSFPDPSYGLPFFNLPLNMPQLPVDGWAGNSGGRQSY
MtAHL2, sequence (G7KSI4 entry or part of it): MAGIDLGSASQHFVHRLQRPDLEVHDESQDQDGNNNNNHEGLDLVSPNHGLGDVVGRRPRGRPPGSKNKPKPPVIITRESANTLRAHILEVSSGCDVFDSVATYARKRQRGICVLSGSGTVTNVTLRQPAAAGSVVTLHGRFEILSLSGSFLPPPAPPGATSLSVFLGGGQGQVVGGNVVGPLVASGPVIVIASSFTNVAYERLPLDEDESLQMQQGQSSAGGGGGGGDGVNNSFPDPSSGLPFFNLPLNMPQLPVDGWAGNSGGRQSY

B1: probe H0 (dsDNA)
DNA 1: TTAATAATTATTTTAATTTTCAAAAAGTATTAATTAC
DNA 2: GTAATTAATACTTTTTGAAAATTAAAATAATTATTAA
binds: all assays above
